The record followed here is the supplement of paper PMC9170038.

This series has as its system MS2 coat protein. Nature of the series: apparent KD of MS2 coat protein; designed switch direction (-1 OFF switch, 1 ON switch): -1; higher = weaker reporter binding. In short, it runs like this: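 Transcription of designed RNA switches on Illumina chips was done by stalled E. coli RNA polymerase. SNAP-549-labelled MS2 coat protein was then titrated in doubling steps from 0.7 or 1.5 nM to 3 µM, with steps of 0.8–1.5 h at the lowest and 10–20 min at the highest concentration. The per-design median over clusters of curve-fitted normalised fluorescence is reported as apparent KD.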

Where [1] appears, read: Eterna round: R95, input ligand: microRNA oligo, concentration not stated.
Where [2] appears, read: Eterna round: R95, input ligand: FMN 200 uM.
[3] abbreviates: Eterna round: R95, input ligand: none.
Setting [4] is: input ligand: microRNA oligo, concentration not stated.

For “UUUUAACAUGAGGAUCACCCAUGUGAGGAUAUCGAAAUUUAUAUUUAUAUUAAUUAAUCGAGAAGGCACAUUUU [JMF 84] (puzzle: Exclusion 1)”, under setting [1], the “apparent KD of MS2 coat protein” value was found to be 150 nM.
On to “UUUUACAAGCCAGAUCCUCACAUGAGGAUCACCCAUGUGCUCGUCUGUUUUCGCACUAUCACGUUUGUGAUAGUGCU [Level Boss var2-10] (puzzle: Sensor v3, turn-off variant 1)”, for which the “apparent KD of MS2 coat protein” value reads like this: under setting [2], 162 nM; under setting [1], 12.9 nM; under setting [3], 288 nM.
“UUUUACAAGCUAAGAUCCUACAUGAGGAUCACCCAUGUGGUCCGGUGACGUGAGUCACCGGACUUAGCUCGUCUUGC [salish99_S_TOV1_R5_088] (Eterna round: R97, puzzle: Sensor, turn-off variant 1)”: the “apparent KD of MS2 coat protein” value runs as follows: (input ligand: FMN 200 uM) 36.2 nM; (input ligand: none) 43.7 nM.
Regarding “UUUUACGUAGGAUAUACAUUUUUUUUAUUAUUUUCAUUAUUACAUGAGGAUCACCCAUGUAGAAGGACGAUUUU [My Design] (puzzle: Exclusion 2)”, the “apparent KD of MS2 coat protein” value under setting [1] was found to be 25 nM.
Consider “UUUUAGCAAGCGAGAAUUAACAUGAGGAUCACCCAUGUGCAUCCAGAAUUACUUUUAGAACAAGCUCGUCUUAUAUA [JR_STOV1_v2_Sub081] (Eterna round: R97, puzzle: Sensor, turn-off variant 1)”, for which the “apparent KD of MS2 coat protein” value runs as follows: (input ligand: FMN 200 uM) 353 nM; (input ligand: none) 401 nM.
In the same order, the values of “UUUUGACAUGAGGAUCACCCAUGUGAGGAUAUGGCUUGUGGCGCGUCUGUGUGGCGGGUUAGAAGGCGCGUGCG [-24.6, -21.7 kcal, A 16%] (Eterna round: R97, puzzle: Exclusion 1)” are 30.8 nM and 38.3 nM.
In the same order, the values of “UUUUGCUCAGGAUAUACAUGAGGAUCACCCAUGUAUAUUGAAGAUAAUACAUGGGAAUGUAGAAGGGAGCUCAU [Omei Ex3 Pseudoloop 19] (Eterna round: R97, puzzle: Exclusion 3)” are 73.5 nM and 156 nM.
In the same order, the values of “UUUUGGCAGGCAAUUAUUAACAUGAGGAUCACCCAUGUGCAUCCAAAAUUACUUUUAGAUCAAGCUCGUCUUAUAUA [JR_STOV1_Sub087] (Eterna round: R97, puzzle: Sensor, turn-off variant 1)” are 29.9 nM and 35.1 nM.
As for “UUUUGGCAGGUAAUUAUUAACAUGAGGAUCACCCAUGUGCAUCCAAAAUUACUUUUAGAUCAAGCUCGUCUUAUAUA [JR_STOV1_Sub088] (Eterna round: R97, puzzle: Sensor, turn-off variant 1)”, the “apparent KD of MS2 coat protein” value was found to be 34 nM (input ligand: FMN 200 uM) and 35.2 nM (input ligand: none).
Turning to “UUUUGUUUGCGAGGAUAUGCUUUUAGUAAGUUAGCAGAAGGCGCGUUACAUAGAACCUCUUGUUACAUGAGGAUCACCCAUGUU [JR_ExcNG1_Sub036] (Eterna round: R96, puzzle: Exclusion NG 1)”, the “apparent KD of MS2 coat protein” value came to 179 nM (input ligand: FMN 200 uM), 110 nM under setting [4] and 168 nM (input ligand: none).
The matching figures for “UUUUUAAAUGAAGGAUAUACUUAACAUGAGGAUCACCCAUGUGGUGUUGUGAGUGAGUGAGUUUAGUAGAAGGUCAAUUCUUUU [JMF's solution 86] (Eterna round: R96, puzzle: Exclusion NG 2)”: 619 nM, 300 nM and 334 nM.
“UUUUUACAUGAGGAUCACCCAUGUCAGGAUAUGUUUAUAUUUUAUUAUUUUAUUUUUUACAGAAGGGACUAUUA [My solution] (puzzle: Exclusion 1)”: under setting [1], the “apparent KD of MS2 coat protein” value was 123 nM.
On to “UUUUUAGAUGAAGGAUAUACUUAACAUGAGGAUCACCCAUGUGGUGUUGUGAGUGAGUGAGUUUAGUAGAAGGUCAAUUAUUUU [JMF's solution 21] (Eterna round: R96, puzzle: Exclusion NG 2)”, for which the “apparent KD of MS2 coat protein” value (input ligand: FMN 200 uM) worked out at 187 nM, the “apparent KD of MS2 coat protein” value under setting [4] stood at 151 nM and the “apparent KD of MS2 coat protein” value (input ligand: none) stood at 260 nM.
With “UUUUUAGUGCUUUUUAAGUACAUGAGGAUCACCCAUGUACUUGUCUGGUGGUCCGGACAAGCUUUUUGCUCGUCUAC [Sensor v3 - turn-off variant 1 - 2] (puzzle: Sensor v3, turn-off variant 1)”, the “apparent KD of MS2 coat protein” value runs as follows: under setting [2], 49.5 nM; under setting [1], 30.5 nM; under setting [3], 54.3 nM.
Take “UUUUUAGUGCUUUUUAAGUACAUGAGGAUCACCCAUGUACUUGUCUGGUGGUCCGGACAAGCUUUUUGCUCGUCUAG [Sensor v3 - turn-off variant 1 - 3] (Eterna round: R96, puzzle: Sensor v3, turn-off variant 1)”: the “apparent KD of MS2 coat protein” value is, setting by setting: (input ligand: FMN 200 uM) 35.6 nM; under setting [4], 27.4 nM; (input ligand: none) 35.8 nM.
“UUUUUAGUGCUUUUUAAGUACAUGAGGAUCACCCAUGUACUUGUCUGGUGGUCCGGACAAGCUUUUUGCUCGUCUAG [Sensor v3 - turn-off variant 1 - 3] (puzzle: Sensor v3, turn-off variant 1)”: the “apparent KD of MS2 coat protein” value amounted to 32.4 nM under setting [2], 29.4 nM under setting [1] and 36.4 nM under setting [3].
Take “UUUUUAUAUGAAGGAUAUACUUAACAUGAGGAUCACCCAUGUGGUGUUGUGAGUGAGUGAGUUUAGUAGAAGGUCAAUUAGCUU [JMF's solution 100] (Eterna round: R96, puzzle: Exclusion NG 2)”: the “apparent KD of MS2 coat protein” value is, setting by setting: (input ligand: FMN 200 uM) 330 nM; under setting [4], 185 nM; (input ligand: none) 342 nM.
Turning to “UUUUUGUCAGGAUAUGACUAGAUGCACGUUAGUGCAUCUACUUAGAAGGGACAUGAGGAUCACCCAUGUAUUCC [Bring Us a Shrubbery-12] (puzzle: Exclusion 4)”, the “apparent KD of MS2 coat protein” value under setting [1] was found to be 27.3 nM.
“UUUUUGUCAGGAUAUGAUUAGAUCUACUUCGGUAGAUCUAAUCAGAAGGGACAUGAGGAUCACCCAUGUAGUUU [Ex4 - 3 - 12] (puzzle: Exclusion 4)”: under setting [1], the “apparent KD of MS2 coat protein” value is 35.2 nM.
Turning to “UUUUUGUCAGGAUAUGAUUAGAUCUACUUCGGUAGAUCUAAUCAGAAGGGACAUGAGGAUCACCCAUGUAGUUU [Mod of Brourd - Jieux - Exclusion 4] (Eterna round: R97, puzzle: Exclusion 4)”, the “apparent KD of MS2 coat protein” value by setting is: (input ligand: FMN 200 uM) 311 nM; (input ligand: none) 55.8 nM.
Consider “UUUUUGUGAGGAUAUCAGUAGUAGAACAAUAGUACUACUACUGAGAAGGCACAUGAGGAUCACCCAUGUUCCUC [Fiskers Ex 4 Super stable 44 mod 9] (puzzle: Exclusion 4)”, for which the “apparent KD of MS2 coat protein” value under setting [1] amounted to 52.6 nM.
On the same count and under the same terms, for “UUUUUGUGAGGAUAUCAGUAGUAGAACAAUAGUACUACUACUGAGAAGGCACAUGAGGAUCACCCAUGUUUCUC [Fiskers Ex 4 Super stable 44 mod 10] (puzzle: Exclusion 4)” the value was 43.3 nM.
